Results on 5 molecules are retold here after US20220387441A1, “TARGETING THE NEUROLIGIN-3 BINDING PARTNER CSPG4 IN GLIOMA” (The Board of Trustees of the Leland Stanford Junior …, priority 2021, published 2022).

One series concerns DIPG6 xenografts. As to the kind of experiment: DIPG6 xenograft survival. Type of series: in vivo. The conditions noted are these: 40 mg/kg IP, 5 days with 2 days of rest, P130 through P158, DIPG6 cells in cortices of NSG mice. The protocol: Dosing of 40 mg/kg was administered via IP injection for 5 days with 2 days of rest in between cycles. Mice were then followed until death.

The test system of series [1] is CSPG4 shedding from glioma cells (DIPG neurospheres 13pons, 21). In words: CSPG4 Release Assay (western blot of conditioned medium). Type of series: cell-based, human. The text has this:
(§1) Here, we provide evidence that both NLGN3 and CSPG4 ectodomains are in fact cleaved in response to neuronal activity, but that these events are separated in space and time. NLGN3 undergoes ADAM-mediated cleavage in response to glutamate-mediated depolarization, freeing the NLGN3 ectodomain to bind the LNS domains of CSPG4 and induce its subsequent cleavage from the membrane (FIG. 2A). High-grade glioma cells constitutively shed proteins such as CSPG4 and NLGN3 into their culture medium. […] These proteins represent cleaved ectodomains, given their failure to react with a C-terminal CSPG4 antibody (FIG. 2B). We also note that these proteins appear as smears by western blot in large part due to the effects of chondroitin sulfate as treatment of conditioned medium with Chondroitinase ABC collapses these smears into sharp bands (FIG. 2B).
CSPG4 Release Assay: DIPG neurospheres (13pons, 21) were cultured in defined medium (1:1 Neurobasal and DMEM F12, 1× Glutamax, 1× pen/strep, 1×MEM NEAA, 1× sodium pyruvate, 1×HEPES, 1×B-27 (w/o vit A) supplement, heparin, EGF, FGF, PDGF-AA, PDGF-BB) at 37C, 5% CO2. Cells were pelleted at 250G×5 min, medium aspirated, and washed in HBSS w/o calcium and magnesium. […] Dissociated and washed cells were resuspended in HBSS plus Ca+/Mg+ and counted. […]
For orientation: A western blot detects proteins with antibodies after separation by electrophoresis.

A further series has as its system DIPG13p xenografts. As to the kind of experiment: DIPG13p xenograft survival. Type of series: in vivo. The conditions noted are these: 30 mg/kg oral gavage daily (5 days on/2 days off) until death, DIPG 13p cells in pons of NSG mice. The text has this:
Blockade of CSPG4 RIP via gamma secretase inhibition attenuates glioma growth. Given that CSPG4 is the largest and most structurally complex member of the surfaceome with several validated binding partners and numerous reported functions, we sought to disrupt signaling events downstream of CSPG4 RIP. To that end, we xenografted human glioma cells into pons of immune-deficient mice and treated them with gamma secretase inhibitor to prevent CSPG4 RIP. The treatment of murine OPCs with a gamma secretase inhibitor accelerated their differentiation in vitro as assessed by MBP staining and in line with reports from others.
Treatment was continued daily (5 days on/2 days off) until death with mice receiving 30 mg/kg of gamma secretase inhibitor or matched vehicle by oral gavage.

For the next series, the target named is T1, CTLA4 (Homo sapiens, UniProt P16410).
T1 construct: CTLA4 is expressed exclusively on T cells; host or cells: patients' T cells (endogenous)
T1 sequence (P16410 36-223): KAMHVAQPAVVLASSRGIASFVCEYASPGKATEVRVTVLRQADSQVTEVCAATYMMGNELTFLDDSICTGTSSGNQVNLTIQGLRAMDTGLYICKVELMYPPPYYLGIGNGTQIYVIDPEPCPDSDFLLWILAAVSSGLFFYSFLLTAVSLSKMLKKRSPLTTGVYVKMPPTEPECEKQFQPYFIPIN
The conditions noted are these: cited from earlier work.

The subject of series [2] is mouse-derived optic pathway glioma cells. In words: AN2 shedding from mouse-derived optic pathway glioma cells. The series is classed as cell-based. To be noted: mouse-derived optic pathway glioma cells incubated with human sNLGN3.
From the text: as §1

In another series the test system is primary mouse OPCs. In words: AN2 shedding from primary mouse OPCs. Type of series: cell-based. To be noted: primary mouse OPCs incubated with human sNLGN3.
From the text: as §1

Bounds are passed on as bounds.

On to `COC(=O)N1CC2(CC2)C[C@H](C(=O)NO)[C@H]1C(=O)N1CC=C(c2ccccc2)CC1` [Aderbasib], for which the mouse survival entry with DIPG6 xenografts is listed as “extends mouse survival”. Regarding `CNC(=O)[C@@H](NC(=O)[C@H](CCCc1ccccc1)[C@H](C)N(O)C=O)C(C)(C)C` [G1254023X], in series [1] (pre-treatment of glioma cells with ADAM10i, 4 uM, 15 minutes), the “shedding of CSPG4 into culture medium (baseline ADAM-mediated cleavage)” value is “prevents shedding”. As for `CC(C)(C(=O)NCC(F)(F)C(F)(F)F)C(=O)N[C@@H]1C(=O)Nc2ccccc2-c2ccccc21` [RO4929097], the mouse survival result in the series on DIPG13p xenografts was “extends mouse survival”. Regarding “Tremelimumab: fully humanized CTLA4 antibody”, the toxicity result in the series with CTLA4 (10 mg/kg monthly regimen versus 15 mg/kg every 3 months, randomized clinical trial) is “doubled”. In addition, the “sustained plasma level in patients with the majority of responses” value with CTLA4 (at one month) is more than 30 µg/mL. Besides, the “dose at which objective responses were evident” value in the series with CTLA4 (single antibody infusion, doses 0.01 mg/kg to 15 mg/kg, patients) is on record as not below 3 mg/kg.

B1: recombinant NLGN3 ectodomains: recombinant human NLGN3 ectodomain, produced in house (protein, UniProt Q9NZ94 38-709, looked up)
extracellular domain: QAPAPTVNTHFGKLRGARVPLPSEILGPVDQYLGVPYAAPPIGEKRFLPPEPPPSWSGIRNATHFPPVCPQNIHTAVPEVMLPVWFTANLDIVATYIQEPNEDCLYLNVYVPTEDVKRISKECARKPNKKICRKGGSGAKKQGEDLADNDGDEDEDIRDSGAKPVMVYIHGGSYMEGTGNMIDGSILASYGNVIVITLNYRVGVLGFLSTGDQAAKGNYGLLDQIQALRWVSENIAFFGGDPRRITVFGSGIGASCVSLLTLSHHSEGLFQRAIIQSGSALSSWAVNYQPVKYTSLLADKVGCNVLDTVDMVDCLRQKSAKELVEQDIQPARYHVAFGPVIDGDVIPDDPEILMEQGEFLNYDIMLGVNQGEGLKFVEGVVDPEDGVSGTDFDYSVSNFVDNLYGYPEGKDTLRETIKFMYTDWADRDNPETRRKTLVALFTDHQWVEPSVVTADLHARYGSPTYFYAFYHHCQSLMKPAWSDAAHGDEVPYVFGVPMVGPTDLFPCNFSKNDVMLSAVVMTYWTNFAKTGDPNKPVPQDTKFIHTKANRFEEVAWSKYNPRDQLYLHIGLKPRVRDHYRATKVAFWKHLVPHLYNLHDMFHYTSTTTKVPPPDTTHSSHITRRPNGKTWSTKRPAISPAYSNENAQGSWNGDQDAGPLLVENPRDYSTELS
modifications: extracellular domain
notes: recombinant human NLGN3 ectodomain, produced in house
As to B1, the “shedding of murine AN2” value (in series [2]; in the series on primary mouse OPCs) was “augment the shedding of murine AN2” throughout. For the same molecule, the “ADAM-mediated CSPG4 cleavage” value in series [1] (glioma cells exposed to 100 nM recombinant human NLGN3 ectodomain, 1 hour) is “augments this ADAM-mediated CSGP4 cleavage”.
